Laboratory results reported in the supplement of paper PMC5998384.

What was measured:
HeLa Kyoto [1] = assay: solubility in G1/S (NP-40 vs SDS abundance) (log2 ratio); higher = more soluble; details: cell cycle stage: G1/S
HeLa Kyoto [2] = assay: solubility change mitosis vs G1/S (difference of NP-40 vs SDS log2 ratios) (log2 ratio difference); higher = more soluble in mitosis
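Wherever solubility change mitosis vs G1/S (difference of NP-40 vs SDS log2 ratios) is given: synchronized HeLa Kyoto cells (double thymidine block for G1/S, nocodazole release for mitosis), protein amounts in NP-40 versus SDS lysates quantified by mass spectrometry, three biological replicates.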
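Wherever solubility in G1/S (NP-40 vs SDS abundance) is given: HeLa Kyoto cells arrested at G1/S by double thymidine block, proteins quantified by TMT10plex mass spectrometry in mild NP-40 versus SDS extracts, three biological replicates.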

“MSTSSLRRQMKNIVHNYSEAEIKVREATSNDPWGPSSSLMSEIADLTYNVVAFSEIMSMIWKRLNDHGKNWRHVYKAMTLMEYLIKTGSERVSQQCKENMYAVQTLKDFQYVDRDGKDQGVNVREKAKQLVALLRDEDRLREERAHALKTKEKLAQTATASSAAVGSGPPPEAEQAWPQSSGEEELQLQLALAMSKEEADQPPSCGPEDDAQLQLALSLSREEHDKEERIRRGDDLRLQMAIEESKRETGGKEESSLMDLADVFTAPAPAPTTDPWGGPAPMAAAVPTAAPTSDPWGGPPVPPAADPWGGPAPTPASGDPWRPAAPAGPSVDPWGGTPAPAAGEGPTPDPWGSSDGGVPVSGPSASDPWTPAPAFSDPWGGSPAKPSTNGTTAAGGFDTEPDEFSDFDRLRTALPTSGSSAGELELLAGEVPARSPGAFDMSGVRGSLAEAVGSPPPAATPTPTPPTRKTPESFLGPNAALVDLDSLVSRPGPTPPGAKASNPFLPGGGPATGPSVTNPFQPAPPATLTLNQLRLSPVPPVPGAPPTYISPLGGGPGLPPMMPPGPPAPNTNPFLL [EPN1]” was tested, and the “solubility in G1/S (log2)” value (HeLa Kyoto [1]) was 0.197 and the “solubility change mitosis (log2)” value (HeLa Kyoto [2]) was 0.235.
For “MASGDFCSPGEGMEILQQVCSKQLPPCNLSKEDLLQNPYFSKLLLNLSQHVDESGLSLTLAKEQAQAWKEVRLHKTTWLRSEILHRVIQELLVDYYVKIQDTNVTSEDKKFHETLEQRLLVTELMRLLGPSQEREIPPLLGLEKADLLELMPLSEDFVWMRARLQQEVEEQLKKKCFTLLCYYDPNSDADSETVKAAKVWKLAEVLVGEQQQCQDAKSQQKEQMLLLEKKSAAYSQVLLRCLTLLQRLLQEHRLKTQSELDRINAQYLEVKCGAMILKLRMEELKILSDTYTVEKVEVHRLIRDRLEGAIHLQEQDMENSRQVLNSYEVLGEEFDRLVKEYTVLKQATENKRWALQEFSKVYR [HAUS4]”, the “solubility in G1/S (log2)” value (HeLa Kyoto [1]) was 0.377 and the “solubility change mitosis (log2)” value (HeLa Kyoto [2]) was -0.0485.
GFER was tested, and the “solubility in G1/S (log2)” value (HeLa Kyoto [1]) was 0.733 and the “solubility change mitosis (log2)” value (HeLa Kyoto [2]) was 0.192.
For “MEEEQDLPEQPVKKAKMQESGEQTISQVSNPDVSDQKPETSSLASNLPMSEEIMTCTDYIPRSSNDYTSQMYSAKPYAHILSVPVSETAYPGQTQYQTLQQTQPYAVYPQATQTYGLPPFGALWPGMKPESGLIQTPSPSQHSVLTCTTGLTTSQPSPAHYSYPIQASSTNASLISTSSTIANIPAAAVASISNQDYPTYTILGQNQYQACYPSSSFGVTGQTNSDAESTTLAATTYQSEKPSVMAPAPAAQRLSSGDPSTSPSLSQTTPSKDTDDQSRKNMTSKNRGKRKADATSSQDSELERVFLWDLDETIIIFHSLLTGSYAQKYGKDPTVVIGSGLTMEEMIFEVADTHLFFNDLEECDQVHVEDVASDDNGQDLSNYSFSTDGFSGSGGSGSHGSSVGVQGGVDWMRKLAFRYRKVREIYDKHKSNVGGLLSPQRKEALQRLRAEIEVLTDSWLGTALKSLLLIQSRKNCVNVLITTTQLVPALAKVLLYGLGEIFPIENIYSATKIGKESCFERIVSRFGKKVTYVVIGDGRDEEIAAKQHNMPFWRITNHGDLVSLHQALELDFL [EYA3]”, the “solubility in G1/S (log2)” value (HeLa Kyoto [1]) was -0.0392 and the “solubility change mitosis (log2)” value (HeLa Kyoto [2]) was -0.0147.
“MEKLYSENEGMASNQGKMENEEQPQDERKPEVTCTLEDKKLENEGKTENKGKTGDEEMLKDKGKPESEGEAKEGKSEREGESEMEGGSEREGKPEIEGKPESEGEPGSETRAAGKRPAEDDVPRKAKRKTNKGLAHYLKEYKEAIHDMNFSNEDMIREFDNMAKVQDEKRKSKQKLGAFLWMQRNLQDPFYPRGPREFRGGCRAPRRDIEDIPYV [TCEAL4]” was tested, and the “solubility in G1/S (log2)” value (HeLa Kyoto [1]) was 0.49 and the “solubility change mitosis (log2)” value (HeLa Kyoto [2]) was 0.452.
In the case of “MSSGLWSQEKVTSPYWEERIFYLLLQECSVTDKQTQKLLKVPKGSIGQYIQDRSVGHSRIPSAKGKKNQIGLKILEQPHAVLFVDEKDVVEINEKFTELLLAITNCEERFSLFKNRNRLSKGLQIDVGCPVKVQLRSGEEKFPGVVRFRGPLLAERTVSGIFFGVELLEEGRGQGFTDGVYQGKQLFQCDEDCGVFVALDKLELIEDDDTALESDYAGPGDTMQVELPPLEINSRVSLKVGETIESGTVIFCDVLPGKESLGYFVGVDMDNPIGNWDGRFDGVQLCSFACVESTILLHINDIIPALSESVTQERRPPKLAFMSRGVGDKGSSSHNKPKATGSTSDPGNRNRSELFYTLNGSSVDSQPQSKSKNTWYIDEVAEDPAKSLTEISTDFDRSSPPLQPPPVNSLTTENRFHSLPFSLTKMPNTNGSIGHSPLSLSAQSVMEELNTAPVQESPPLAMPPGNSHGLEVGSLAEVKENPPFYGVIRWIGQPPGLNEVLAGLELEDECAGCTDGTFRGTRYFTCALKKALFVKLKSCRPDSRFASLQPVSNQIERCNSLAFGGYLSEVVEENTPPKMEKEGLEIMIGKKKGIQGHYNSCYLDSTLFCLFAFSSVLDTVLLRPKEKNDVEYYSETQELLRTEIVNPLRIYGYVCATKIMKLRKILEKVEAASGFTSEEKDPEEFLNILFHHILRVEPLLKIRSAGQKVQDCYFYQIFMEKNEKVGVPTIQQLLEWSFINSNLKFAEAPSCLIIQMPRFGKDFKLFKKIFPSLELNITDLLEDTPRQCRICGGLAMYECRECYDDPDISAGKIKQFCKTCNTQVHLHPKRLNHKYNPVSLPKDLPDWDWRHGCIPCQNMELFAVLCIETSHYVAFVKYGKDDSAWLFFDSMADRDGGQNGFNIPQVTPCPEVGEYLKMSLEDLHSLDSRRIQGCARRLLCDAYMCMYQSPTMSLYK”, the “solubility in G1/S (log2)” value (HeLa Kyoto [1]) is reported as 0.0441 and the “solubility change mitosis (log2)” value (HeLa Kyoto [2]) is reported as -0.178.
With “MASKKVCIVGSGNWGSAIAKIVGGNAAQLAQFDPRVTMWVFEEDIGGKKLTEIINTQHENVKYLPGHKLPPNVVAVPDVVQAAEDADILIFVVPHQFIGKICDQLKGHLKANATGISLIKGVDEGPNGLKLISEVIGERLGIPMSVLMGANIASEVADEKFCETTIGCKDPAQGQLLKELMQTPNFRITVVQEVDTVEICGALKNVVAVGAGFCDGLGFGDNTKAAVIRLGLMEMIAFAKLFCSGPVSSATFLESCGVADLITTCYGGRNRKVAEAFARTGKSIEQLEKELLNGQKLQGPETARELYSILQHKGLVDKFPLFMAVYKVCYEGQPVGEFIHCLQNHPEHM [GPD1]” the “solubility in G1/S (log2)” value (HeLa Kyoto [1]) was 0.278 and the “solubility change mitosis (log2)” value (HeLa Kyoto [2]) was 0.00396.
In the case of “MGPLRESKKEHRVQHHDKEISRSRIPRLILRPHMPQQQHKVSPASESPFSEEESREFNPSSSGRSARTVSSNSFCSDDTGCPSSQSVSPVKTPSDAGNSPIGFCPGSDEGFTRKKCTIGMVGEGSIQSSRYKKESKSGLVKPGSEADFSSSSSTGSISAPEVHMSTAGSKRSSSSRNRGPHGRSNGASSHKPGSSPSSPREKDLLSMLCRNQLSPVNIHPSYAPSSPSSSNSGSYKGSDCSPIMRRSGRYMSCGENHGVRPPNPEQYLTPLQQKEVTVRHLKTKLKESERRLHERESEIVELKSQLARMREDWIEEECHRVEAQLALKEARKEIKQLKQVIETMRSSLADKDKGIQKYFVDINIQNKKLESLLQSMEMAHSGSLRDELCLDFPCDSPEKSLTLNPPLDTMADGLSLEEQVTGEGADRELLVGDSIANSTDLFDEIVTATTTESGDLELVHSTPGANVLELLPIVMGQEEGSVVVERAVQTDVVPYSPAISELIQSVLQKLQDPCPSSLASPDESEPDSMESFPESLSALVVDLTPRNPNSAILLSPVETPYANVDAEVHANRLMRELDFAACVEERLDGVIPLARGGVVRQYWSSSFLVDLLAVAAPVVPTVLWAFSTQRGGTDPVYNIGALLRGCCVVALHSLRRTAFRIKT [SYBU]”, the “solubility in G1/S (log2)” value (HeLa Kyoto [1]) is reported as -0.253 and the “solubility change mitosis (log2)” value (HeLa Kyoto [2]) is reported as 0.0944.
For “MVRKLKFHEQKLLKQVDFLNWEVTDHNLHELRVLRRYRLQRREDYTRYNQLSRAVRELARRLRDLPERDQFRVRASAALLDKLYALGLVPTRGSLELCDFVTASSFCRRRLPTVLLKLRMAQHLQAAVAFVEQGHVRVGPDVVTDPAFLVTRSMEDFVTWVDSSKIKRHVLEYNEERDDFDLEA [IMP3]”, the “solubility in G1/S (log2)” value (HeLa Kyoto [1]) was -2.11 and the “solubility change mitosis (log2)” value (HeLa Kyoto [2]) was 1.1.
